Test results: patent US20230272086A1 (CHIA TAI TIANQING PHARMACEUTICAL GROUP, published 2023)
Positions count from the first letter of the chain named.

B1: RG6149 (antibody Ab2 in CN104334582, prepared in-house) (antibody, human IgG2, kappa, V domains shown)
VH: EVQLVQSGAEVKKPGESLKISCKGSGYSFTNYWIGWVRQMPGKGLEWMGIIYPGNSDTRFSPSFQGQVTISADKSITTAYLQWSSLKASDTAMYYCARHGTSSDYYGLDVWGQGTTVTVSS
VL: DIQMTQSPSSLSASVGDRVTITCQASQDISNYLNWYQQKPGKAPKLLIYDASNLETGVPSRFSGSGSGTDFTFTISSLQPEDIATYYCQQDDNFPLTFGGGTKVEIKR
notes: Control anti-ST2 antibody
B2: Humanized 31C8-1.1 (antibody, human IgG2, kappa, V domains shown)
VH: EVQLVQSGAEVKKPGATVKISCKASGYIFIDSEMHWVQQAPGKGLEWMGAIDPETGDTVYAEKFQGRVTITADKSSSTAYMELSSLRSEDTAVYYCTGSTTDYYFAYWGQGTLVTVSS
VL: DIQMTQSPSSLSASVGDRVTITCRSSKSLLHSNGIIYLYWYQQKPGKAPKLLIYQLSNLASGVPSRFSSSGSGTDFTLTISSLQPEDFATYYCAQNLELPFTFGQGTKVEIKR
notes: also called hz31C8-1.1; hz31C81-1.1
B3: Humanized 31C8-1.2 (antibody, human IgG2, kappa, V domains shown)
VH: B2 VH with E1Q, E10K, E62K, Q65K
VL: B2 VL
notes: also called hz31C8-1.2; hz31C81-1.2
B4: Chimeric 31C8 (antibody, human IgG2, kappa, V domains shown)
VH: QVQLQQSGPELVRPGASVTLSCKASGYIFIDSEMHWVKQTPVHGLEWIGAIDPETGDTVYNQKFKGKATLTADKSSSTASMELSSLTSEDSAVYYCTGSTTDYYFAYWGQGTTLTVSS
VL: DIVMTQAAFSNPVTLGTSASISCRSSKSLLHSNGIIYLYWYLQKPGQSPQLLIYQMSNLASGVPDRFSSSGSGTDFTLRISRVEAEDVGVYYCAQNLELPFTFGSGTKLEIKR
notes: also called xi31C8
B5: GSK3772847 (antibody STLM208 in CN104411333, prepared in-house) (antibody, human IgG2, kappa, V domains shown)
VH: EVQLLESGGGLVQPGGSLRLSCAASGFTFSIYDMIWVRQAPGKGLEWVSSIRGEGGGTYYADSVKGRFTISRDNSKNTLYLQMNSLRAEDTAVYYCARDPWSTEGSFFVLDYWGQGTLVTVSS
VL: EIVLTQSPATLSLSPGERATLSCRASQSVDDDLAWYQQKPGQAPRLLIYDASNRATGIPARFSGSGSGTDFTLTISSLEPEDFAVYYCQQYITAPLTFGQGTKVEIKR
notes: Control anti-ST2 antibody

Biological target: T1, IL1R2/CD121b (Sino biological, 10111-H08H) (UniProt P27930 14-343)
T1 construct: Bought protein
T1 sequence (looked up): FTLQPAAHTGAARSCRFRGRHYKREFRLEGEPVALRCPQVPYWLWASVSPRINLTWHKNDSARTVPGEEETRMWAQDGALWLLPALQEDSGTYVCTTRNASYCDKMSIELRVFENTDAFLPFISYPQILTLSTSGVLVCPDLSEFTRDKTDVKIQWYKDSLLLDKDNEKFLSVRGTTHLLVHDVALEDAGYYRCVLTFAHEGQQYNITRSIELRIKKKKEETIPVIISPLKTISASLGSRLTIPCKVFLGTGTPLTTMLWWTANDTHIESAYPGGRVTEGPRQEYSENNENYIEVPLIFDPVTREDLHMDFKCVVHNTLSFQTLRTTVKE
Assay: ELISA, plate coated with 2 µg/mL receptor
Experimental: (§1) The anti-ST2 antibodies were diluted with PBS buffer to a concentration of 1.5 mg/mL. After being treated at 72° C. for 5 min, the samples were assayed by ELISA for their binding activity for an antigen The ELISA procedure is as follows: A 96-well plate was coated with 2 µg/mL hST2-ECD-mFc as the antigen at 100 µL/well and incubated at 4° C. overnight. After the antigen not adsorbed was well washed off, the non-specific binding sites were blocked with a blocking buffer (PBST containing 1% bovine serum albumin). After the plate was washed three times with a washing buffer (PBST, PBS containing 0.05% (v/v) Tween 20), the anti-ST2 antibodies (serially diluted 3-fold from an initial concentration of 1.5 µg/mL to 8 concentrations) were added at 100 µL/well, and the plate was incubated at 37° C. for 1 h. […] After the plate was incubated at room temperature for 5 min, a stop solution (2 N H₂SO₄) was added to stop the reactions. The signals were read at 450 nm using a plate reader (PE, Envision). The data were analyzed using GraphPad Prism5, and the EC₅₀ values were calculated.
(§2) ST2 belongs to the IL1R receptor family. The cross-reactivity of the anti-ST2 antibodies with the IL1R family receptors was determined by ELISA. The IL1R family receptors include IL1R⅟CD121a (Sino biological, 10126-H08H), IL1R2/CD121b (Sino biological, 10111-H08H), IL1R3/IL1RAP (Sino biological, 10121-H08H), IL1R7/IL-18RAcP (Sino biological, 10176-H08H), IL1R8/IL1RAPL1 (Sino biological, 10177-H08H), and IL1R9/IL1RAPL2 (Sino biological, 10156-H08H). ELISA assays were performed using the proteins described above as antigens (2 µg/mL). See Example 13 for the specific ELISA procedure. No binding means that the antibody remains unbound to the antigen when at the highest concentration.

Binding result, no binding:
B1, B2, B3, B4

Biological target: T2, IL1R3/IL1RAP (Sino biological, 10121-H08H) (UniProt Q9NPH3 21-359)
T2 construct: Bought protein
T2 sequence (looked up): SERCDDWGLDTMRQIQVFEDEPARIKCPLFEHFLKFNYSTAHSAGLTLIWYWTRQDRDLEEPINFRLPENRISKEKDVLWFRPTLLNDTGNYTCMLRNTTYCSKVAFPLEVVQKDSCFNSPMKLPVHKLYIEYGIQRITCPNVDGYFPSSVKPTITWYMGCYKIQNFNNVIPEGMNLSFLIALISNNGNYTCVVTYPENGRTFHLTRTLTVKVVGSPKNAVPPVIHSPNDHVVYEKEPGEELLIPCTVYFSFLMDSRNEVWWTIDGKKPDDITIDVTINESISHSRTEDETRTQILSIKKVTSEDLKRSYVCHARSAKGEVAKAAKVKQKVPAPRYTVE
Assay: ELISA, plate coated with 2 µg/mL receptor
Experimental: as §1, §2

Binding result, no binding:
B1, B5, B2, B3, B4

Biological target: T3, IL1R7/IL-18RAcP (Sino biological, 10176-H08H) (UniProt O95256 20-356)
T3 construct: Bought protein
T3 sequence (looked up): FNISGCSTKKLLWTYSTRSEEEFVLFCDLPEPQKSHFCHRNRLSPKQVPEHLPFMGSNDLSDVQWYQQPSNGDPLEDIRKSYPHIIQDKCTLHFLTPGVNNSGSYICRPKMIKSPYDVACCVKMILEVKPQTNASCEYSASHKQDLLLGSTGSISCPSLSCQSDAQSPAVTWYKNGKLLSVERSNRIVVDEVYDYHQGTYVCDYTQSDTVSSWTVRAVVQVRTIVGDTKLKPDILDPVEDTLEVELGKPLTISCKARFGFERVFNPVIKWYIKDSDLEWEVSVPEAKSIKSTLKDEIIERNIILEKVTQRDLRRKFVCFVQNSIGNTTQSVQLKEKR
Assay: ELISA, plate coated with 2 µg/mL receptor
Experimental: as §1, §2

Binding result, no binding:
B1, B2, B3, B4

Biological target: T4, IL1R8/IL1RAPL1 (Sino biological, 10177-H08H) (UniProt Q9NZN1 19-357)
T4 construct: Bought protein
T4 sequence (looked up): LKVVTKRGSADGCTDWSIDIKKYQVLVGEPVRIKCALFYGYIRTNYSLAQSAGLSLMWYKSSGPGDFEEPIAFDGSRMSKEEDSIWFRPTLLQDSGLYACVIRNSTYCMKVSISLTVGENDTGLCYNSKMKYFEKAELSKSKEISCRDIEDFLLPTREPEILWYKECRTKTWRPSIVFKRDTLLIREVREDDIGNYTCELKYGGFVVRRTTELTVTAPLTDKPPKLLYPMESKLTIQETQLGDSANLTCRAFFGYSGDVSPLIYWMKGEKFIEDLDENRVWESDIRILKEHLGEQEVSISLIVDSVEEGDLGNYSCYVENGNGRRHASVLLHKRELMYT
Assay: ELISA, plate coated with 2 µg/mL receptor
Experimental: as §1, §2

Binding result, no binding:
B1, B5, B2, B3, B4

Biological target: T5, IL1R9/IL1RAPL2 (Sino biological, 10156-H08H) (UniProt Q9NP60 17-354)
T5 construct: Bought protein
T5 sequence (looked up): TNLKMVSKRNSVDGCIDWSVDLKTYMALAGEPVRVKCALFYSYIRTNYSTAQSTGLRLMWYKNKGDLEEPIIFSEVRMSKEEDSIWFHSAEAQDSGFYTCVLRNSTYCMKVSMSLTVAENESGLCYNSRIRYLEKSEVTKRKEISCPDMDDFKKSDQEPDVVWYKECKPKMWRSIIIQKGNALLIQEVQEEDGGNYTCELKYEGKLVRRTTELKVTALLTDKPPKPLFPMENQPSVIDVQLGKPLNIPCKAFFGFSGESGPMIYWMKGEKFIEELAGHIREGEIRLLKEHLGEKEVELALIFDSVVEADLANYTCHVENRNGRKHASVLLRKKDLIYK
Assay: ELISA, plate coated with 2 µg/mL receptor
Experimental: as §1, §2

Binding result, no binding:
B1, B5, B2, B3, B4
